The values that follow come from US7387779B2, “Anti-angiogenic proteins and fragments and methods of use thereof” (Beth Israel Deaconess Medical Center, priority 1998, dated 2008).

The subject of assay [1] is 786-O tumors. The assay is described as follows: 786-O renal cell carcinoma xenograft. Conditions: for inhibition of tumor growth compared to placebo: 10 mg/kg I.P. daily, 10 days. The assay is classed as in vivo, athymic nude mice. How it is done: In the first group of six mice, the tumors were allowed to grow to about 700 mm^3. In a second group of six mice, the tumors were allowed to group to 100 mm^3. Arresten in sterile PBS was injected I.P. daily for 10 days, at a concentration of 20 mg/kg for the mice with tumors of 700 mm^3, and 10 mg/kg for the mice with tumors of 100 mm^3. Control mice received either BSA or the PBS vehicle. […] Tumors in the Arresten-treated mice shrank from 700 to 500 mm^3, while tumors in BSA-treated and control mice grew to about 1200 mm^3 in 10 days. […] The tumors were allowed to grow to either about 100 mm^3 or about 700^3. Each group contained 6 mice. Canstatin in sterile PBS was injected I.P. daily at a concentration of 10 mg/kg for 10 days. The control group received the same volume of PBS. The results are shown in FIGS. 17C (100 mm^3 tumors) and […] (700 mm^3 tumors). In both groups, the Canstatin-treated (.box-solid.) tumors actually shrank relative to the controls (□). Tumstatin's effect on another established primary tumors in mice was also studied. […] Tumstatin was intraperitoneally injected daily (6 mg/kg) for 10 days in sterile PBS. The control group received BSA injections. […] E. Coli-produced Tumstatin at 6 mg/kg inhibited the tumor growth of 786-O human renal cell carcinoma as compared to the BSA control (FIG. 27B). […] Each point represents the mean i SE of 5-6 mice per group. Data points marker with an asterisk were significant, with P<0.05 by one tailed Student's t test. […] The tumors were allowed to grow to a size of about 100-150 mm^3. The mice were then divided into groups of 5, and were injected daily intraperitoneally with 20 mg/kg of the E. Coli-expressed truncated Tumstatin lacking the 53 N-terminal amino acids (Kalluri, R. et al., 1996, J. Biol. Chem. 271:9062-68) for 10 days. Control mice received PBS injection. The results are shown in FIG. 28, which is a graph showing increase in tumor volume (y-axis) against day of treatment (x-axis) for control mice (□) and mice treated with the Tumstatin mutant N53 (●). […] Each point represents the mean ±SE of 5-6 mice/group. Data points marked with an asterisk were significant, with P<0.05 by one-tailed Student's t test.

Assay [2] deals with C-PAE cells. Kind of assay: Endothelial cell proliferation, 3H-thymidine incorporation. The assay is classed as cell-based, bovine. As for the experimental part: C-PAE cells were grown to confluence in DMEM with 10% fetal calf serum (FCS) and kept contact inhibited for 48 hours. Control cells were 786-O (renal carcinoma) cells, PC-3 cells, HPEC cells, and A-498 (renal carcinoma) cells. Cells were harvested with trypsinization (Life Technologies/Gibco BRL, Gaithersburg, Md., USA) at 37° C. for five minutes. A suspension of 12,500 cells in DMEM with 1% FCS was added to each well of a 24-well plate coated with 10 μg/ml fibronectin. The cells were incubated for 24 hours at 37° C. with 5% CO2 and 95% humidity. […] Unstimulated controls received no bFGF. Cells were treated with concentrations of Arresten or endostatin ranging from 0.01 to 50 μg/ml. All wells received 1 μCurie of ^3H-thymidine at the time of treatment. After 24 hours, medium was removed and the wells were washed with PBS. Cells were extracted with 1N NaOH and added to a scintillation vial containing 4 ml of ScintiVerse II (Fisher Scientific, Pittsburgh, Pa., USA) solution. Thymidine incorporation was measured using a scintillation counter. The results are shown in FIGS. 3A and 3B, which are a pair of graphs showing incorporation of ^3H-thymidine into C-PAE cells treated with varying amounts of Arresten (FIG. 3A) or endostatin (FIG. 3B). Arresten appeared to inhibit thymidine incorporation in C-PAE as well as did endostatin. Behavior of control cells treated with Arresten and endostatin is also shown in FIG. 4A, 4B, 4C, and 4D, with Arresten having little effect on 786-O cells (FIG. 4A), PC-3 cells (FIG. 4B), or HPEC cells (FIG. 4C). Endostatin had little effect on A-498 cells (FIG. 4D). All groups in FIGS. 3 and 4 represent triplicate samples.
Bovine calf aortic endothelial (C-PAE) cells were grown to confluence in DMEM with 10% fetal calf serum (FCS) and kept contact inhibited for 48 hours. […] Radioactivity was extracted with 1N NaOH and added to a scintillation vial containing 4 ml of ScintiVerse II (Fisher Scientific, Pittsburgh, Pa., USA) solution. Thymidine incorporation was measured using a scintillation counter. […]
Background: Incorporation of labelled thymidine or its analogues reports DNA synthesis.

B1: Tum-1: residues 54 to 244 of Tumstatin, lacking the N-terminal 53 amino acids (SEQ ID NO:22) (protein)
chain: QRAHGQDLGTLGSCLQRFTTMPFLFCNVNDVCNFASRNDYSYWLSTPALMPMNMAPITGRALEPYISRCTVCEGPAIAIAVHSQTTDIPPCPHGWISLWKGFSFIMFTSAGSEGTGQALASPGSCLEEFRASPFLECHGRGTCNYYSNSYSFWLASLNPERMFRKPIPSTVKAGELEKIISRCQVCMKKRH
modifications: Tum-1 (Tumstatin N-53) (amino acids 54-244 of SEQ ID NO10)
On to B1, for which the “tumor volume on day 10” value in assay [1] (start 100-150 mm^3, 6 mg/kg in the result sentence (20 mg/kg in the method), control 345.0±24.0) was found to be 110.0±29.0 mm^3.

B2: Tumstatin: NC1 domain of the α3 chain of type IV collagen, residues 1-244 (SEQ ID NO:10) (protein, listed as Homo sapiens)
chain: GLKGKRGDSGSPATWTTRGFVFTRHSQTTAIPSCPEGTVPLYSGFSFLFVQGNQRAHGQDLGTLGSCLQRFTTMPFLFCNVNDVCNFASRNDYSYWLSTPALMPMNMAPITGRALEPYISRCTVCEGPAIAIAVHSQTTDIPPCPHGWISLWKGFSFIMFTSAGSEGTGQALASPGSCLEEFRASPFLECHGRGTCNYYSNSYSFWLASLNPERMFRKPIPSTVKAGELEKIISRCQVCMKKRH
Consider B2, for which the “ED50, inhibition of 3H-thymidine incorporation” value in assay [2] (20% FCS stimulated) was “approximately 0.01 mg/ml”. The “tumor volume on day 10” value in assay [1] (6 mg/kg i.p. daily, start 600-700 mm^3, control 1096±179.7) is on record as 619±120.7 mm^3.

B3: endostatin: tumor associated angiogenesis inhibitor used as comparator (protein, UniProt P39060 1572-1754, looked up)
Endostatin: HSHRDFQPVLHLVALNSPLSGGMRGIRGADFQCFQQARAVGLAGTFRAFLSSRLQDLYSIVRRADRAAVPIVNLKDELLFPSWEALFSGSEGPLKPGARIFSFDGKDVLRHPTWPQKSVWHGSDPNGRRLTESYCETWRTEAPSATGQASSLLGGRLLGQSAASCHHAYIVLCIENSFMTASK
modifications: Endostatin
B3: in assay [2] (bFGF-stimulated, E. Coli-produced Arresten), the “ED50, inhibition of proliferation” value was 0.75 µg/mL.

B4: Canstatin: NC1 domain of the α2 chain of Type IV collagen (SEQ ID NO:6) (protein, listed as Homo sapiens)
chain: VSIGYLLVKHSQTDQEPMCPVGMNKLWSGYSLLYFEGQEKAHNQDLGLAGSCLARFSTMPFLYCNPGDVCYYASRNDKSYWLSTTAPLPMMPVAEDEIKPYISRCSVCEAPAIAIAVHSQDVSIPHCPAGWRSLWIGYSFLMHTAAGDEGGGQSLVSPGSCLEDFRATPFIECNGGRGTCHYYANKYSFWLTTIPEQSFQGSPSADTLKAGLIRTHISRCQVCMKNL
Take B4: the “ED50, inhibition of proliferation” value in assay [2] (10% serum-stimulated) was “approximately 0.5 μg/ml”. Further, the “inhibition of tumor growth compared to placebo” value in assay [1] (large (700 mm^3) tumors) was determined as 3 fold; in assay [1] (small (100 mm^3) tumors) it was 4 fold.
